Experimental data as given in US20230272029A1, “CO-AGONISTS AT GLP-1 AND GIP RECEPTORS SUITABLE FOR ORAL DELIVERY” (Novo Nordisk A/S, priority 2020, published 2023).
Starred links: 1 amine or outer side, 2 acyl side, 3 side chain; linkers in the order of their positions; H or OH if unused. Non-standard residues stand in square brackets, D forms with d. Groups on a side chain read outwards from the residue. No end group written: not given here. *: point of attachment. C20 diacid = O=C(O)CCCCCCCCCCCCCCCCCCC(=O)*; C18 diacid = O=C(O)CCCCCCCCCCCCCCCCC(=O)*; γGlu = O=C(O)[C@H](CCC(=O)[*:2])N[*:1]; εLys = N[C@@H](CCCCN[*:1])C(=O)[*:2]; Aib = CC(C)(N)C(=O)O

T1: human GIP receptor (human, UniProt P48546 22-466)
T1 sequence (looked up): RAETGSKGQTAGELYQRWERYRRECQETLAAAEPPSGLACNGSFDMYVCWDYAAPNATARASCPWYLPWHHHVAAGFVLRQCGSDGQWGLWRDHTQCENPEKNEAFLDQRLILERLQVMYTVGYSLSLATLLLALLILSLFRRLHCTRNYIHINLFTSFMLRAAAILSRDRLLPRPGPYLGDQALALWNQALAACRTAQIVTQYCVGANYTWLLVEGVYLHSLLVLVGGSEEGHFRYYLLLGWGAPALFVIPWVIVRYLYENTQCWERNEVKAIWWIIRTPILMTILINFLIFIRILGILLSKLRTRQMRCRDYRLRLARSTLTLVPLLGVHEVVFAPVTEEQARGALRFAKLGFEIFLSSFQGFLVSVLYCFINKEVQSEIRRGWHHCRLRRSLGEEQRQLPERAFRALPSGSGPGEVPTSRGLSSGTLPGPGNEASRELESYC


What was measured:
human GIP receptor = molecular target: T1, human GIP receptor; experiment: cell-based or functional assay
human GLP-1 receptor = human GLP-1 receptor (human, UniProt P43220 24-463); experiment: cell-based or functional assay

Row | Binder | hGIPR, CRE Luc 0% HSA EC50 (pM) (human GIP receptor) | hGIPR, CRE Luc 1% HSA EC50 (pM) (human GIP receptor) | hGLP-1R, CRE Luc 0% HSA EC50 (pM) (human GLP-1 receptor) | hGLP-1R, CRE Luc 1% HSA EC50 (pM) (human GLP-1 receptor)
1 | Y[Aib]EGTFTSDYSIYLEEQAARK([εLys-εLys-γGlu-C18 diacid])FINWLLAGGPSSGAPPPS-OH (N-terminus assumed; SMILES CC[C@H](C)[C@H](NC(=O)[C@H](Cc1ccccc1)NC(=O)[C@H](CCCCNC(=O)[C@@H](N)CCCCNC(=O)[C@@H](N)CCCCNC(=O)CC[C@H](NC(=O)CCCCCCCCCCCCCCCCC(=O)O)C(=O)O)NC(=O)[C@H](CCCNC(=N)N)NC(=O)[C@H](C)NC(=O)[C@H](C)NC(=O)[C@H](CCC(N)=O)NC(=O)[C@H](CCC(=O)O)NC(=O)[C@H](CCC(=O)O)NC(=O)[C@H](CC(C)C)NC(=O)[C@H](Cc1ccc(O)cc1)NC(=O)[C@@H](NC(=O)[C@H](CO)NC(=O)[C@H](Cc1ccc(O)cc1)NC(=O)[C@H](CC(=O)O)NC(=O)[C@H](CO)NC(=O)[C@@H](NC(=O)[C@H](Cc1ccccc1)NC(=O)[C@@H](NC(=O)CNC(=O)[C@H](CCC(=O)O)NC(=O)C(C)(C)NC(=O)[C@@H](N)Cc1ccc(O)cc1)[C@@H](C)O)[C@@H](C)O)[C@@H](C)CC)C(=O)N[C@@H](CC(N)=O)C(=O)N[C@@H](Cc1c[nH]c2ccccc12)C(=O)N[C@@H](CC(C)C)C(=O)N[C@@H](CC(C)C)C(=O)N[C@@H](C)C(=O)NCC(=O)NCC(=O)N1CCC[C@H]1C(=O)N[C@@H](CO)C(=O)N[C@@H](CO)C(=O)NCC(=O)N[C@@H](C)C(=O)N1CCC[C@H]1C(=O)N1CCC[C@H]1C(=O)N1CCC[C@H]1C(=O)N[C@@H](CO)C(=O)O) [Compound No. 37] | 11.2 | 298 | 2.7 | 94.6
2 | Y[Aib]EGTFTSDYSIYLEK([εLys-εLys-γGlu-C18 diacid])QAAREFIEWLLRGGPSSGAPPPS-OH (N-terminus assumed; SMILES CC[C@H](C)[C@H](NC(=O)[C@H](Cc1ccccc1)NC(=O)[C@H](CCC(=O)O)NC(=O)[C@H](CCCNC(=N)N)NC(=O)[C@H](C)NC(=O)[C@H](C)NC(=O)[C@H](CCC(N)=O)NC(=O)[C@H](CCCCNC(=O)[C@@H](N)CCCCNC(=O)[C@@H](N)CCCCNC(=O)CC[C@H](NC(=O)CCCCCCCCCCCCCCCCC(=O)O)C(=O)O)NC(=O)[C@H](CCC(=O)O)NC(=O)[C@H](CC(C)C)NC(=O)[C@H](Cc1ccc(O)cc1)NC(=O)[C@@H](NC(=O)[C@H](CO)NC(=O)[C@H](Cc1ccc(O)cc1)NC(=O)[C@H](CC(=O)O)NC(=O)[C@H](CO)NC(=O)[C@@H](NC(=O)[C@H](Cc1ccccc1)NC(=O)[C@@H](NC(=O)CNC(=O)[C@H](CCC(=O)O)NC(=O)C(C)(C)NC(=O)[C@@H](N)Cc1ccc(O)cc1)[C@@H](C)O)[C@@H](C)O)[C@@H](C)CC)C(=O)N[C@@H](CCC(=O)O)C(=O)N[C@@H](Cc1c[nH]c2ccccc12)C(=O)N[C@@H](CC(C)C)C(=O)N[C@@H](CC(C)C)C(=O)N[C@@H](CCCNC(=N)N)C(=O)NCC(=O)NCC(=O)N1CCC[C@H]1C(=O)N[C@@H](CO)C(=O)N[C@@H](CO)C(=O)NCC(=O)N[C@@H](C)C(=O)N1CCC[C@H]1C(=O)N1CCC[C@H]1C(=O)N1CCC[C@H]1C(=O)N[C@@H](CO)C(=O)O) [Compound No. 12] | 9 | 71.5 | 4 | 54.4
3 | Y[Aib]EGTFTSDYSIYLEK([εLys-εLys-γGlu-C20 diacid])QAAQEFVNWLLAGGPSSGAPPPS-NH2 (N-terminus assumed; SMILES CC[C@H](C)[C@H](NC(=O)[C@H](CO)NC(=O)[C@H](Cc1ccc(O)cc1)NC(=O)[C@H](CC(=O)O)NC(=O)[C@H](CO)NC(=O)[C@@H](NC(=O)[C@H](Cc1ccccc1)NC(=O)[C@@H](NC(=O)CNC(=O)[C@H](CCC(=O)O)NC(=O)C(C)(C)NC(=O)[C@@H](N)Cc1ccc(O)cc1)[C@@H](C)O)[C@@H](C)O)C(=O)N[C@@H](Cc1ccc(O)cc1)C(=O)N[C@@H](CC(C)C)C(=O)N[C@@H](CCC(=O)O)C(=O)N[C@@H](CCCCNC(=O)[C@@H](N)CCCCNC(=O)[C@@H](N)CCCCNC(=O)CC[C@H](NC(=O)CCCCCCCCCCCCCCCCCCC(=O)O)C(=O)O)C(=O)N[C@@H](CCC(N)=O)C(=O)N[C@@H](C)C(=O)N[C@@H](C)C(=O)N[C@@H](CCC(N)=O)C(=O)N[C@@H](CCC(=O)O)C(=O)N[C@@H](Cc1ccccc1)C(=O)N[C@H](C(=O)N[C@@H](CC(N)=O)C(=O)N[C@@H](Cc1c[nH]c2ccccc12)C(=O)N[C@@H](CC(C)C)C(=O)N[C@@H](CC(C)C)C(=O)N[C@@H](C)C(=O)NCC(=O)NCC(=O)N1CCC[C@H]1C(=O)N[C@@H](CO)C(=O)N[C@@H](CO)C(=O)NCC(=O)N[C@@H](C)C(=O)N1CCC[C@H]1C(=O)N1CCC[C@H]1C(=O)N1CCC[C@H]1C(=O)N[C@@H](CO)C(N)=O)C(C)C) [Compound No. 1] | 2.8 | 172 | 7.8 | 1660
4 | Y[Aib]EGTFTSDYSIYLEK([εLys-εLys-γGlu-C18 diacid])QAAREFINWLLAGGPSSGAPPPS-OH (N-terminus assumed; SMILES CC[C@H](C)[C@H](NC(=O)[C@H](Cc1ccccc1)NC(=O)[C@H](CCC(=O)O)NC(=O)[C@H](CCCNC(=N)N)NC(=O)[C@H](C)NC(=O)[C@H](C)NC(=O)[C@H](CCC(N)=O)NC(=O)[C@H](CCCCNC(=O)[C@@H](N)CCCCNC(=O)[C@@H](N)CCCCNC(=O)CC[C@H](NC(=O)CCCCCCCCCCCCCCCCC(=O)O)C(=O)O)NC(=O)[C@H](CCC(=O)O)NC(=O)[C@H](CC(C)C)NC(=O)[C@H](Cc1ccc(O)cc1)NC(=O)[C@@H](NC(=O)[C@H](CO)NC(=O)[C@H](Cc1ccc(O)cc1)NC(=O)[C@H](CC(=O)O)NC(=O)[C@H](CO)NC(=O)[C@@H](NC(=O)[C@H](Cc1ccccc1)NC(=O)[C@@H](NC(=O)CNC(=O)[C@H](CCC(=O)O)NC(=O)C(C)(C)NC(=O)[C@@H](N)Cc1ccc(O)cc1)[C@@H](C)O)[C@@H](C)O)[C@@H](C)CC)C(=O)N[C@@H](CC(N)=O)C(=O)N[C@@H](Cc1c[nH]c2ccccc12)C(=O)N[C@@H](CC(C)C)C(=O)N[C@@H](CC(C)C)C(=O)N[C@@H](C)C(=O)NCC(=O)NCC(=O)N1CCC[C@H]1C(=O)N[C@@H](CO)C(=O)N[C@@H](CO)C(=O)NCC(=O)N[C@@H](C)C(=O)N1CCC[C@H]1C(=O)N1CCC[C@H]1C(=O)N1CCC[C@H]1C(=O)N[C@@H](CO)C(=O)O) [Compound No. 11] | 9.9 | 450 | 3.3 | 132
